Legend:
[1] = substrate: Cc1ccc(Nc2c(F)cccc2Cl)c(CC(=O)O)c1; assay: cells, lysate or membranes named; details: 95% CI in parentheses, pH 7.4
[2] = substrate: Cc1ccc(Cl)c(Nc2ccccc2C(=O)O)c1Cl; assay: cells, lysate or membranes named; details: 95% CI in parentheses, pH 7.4
[3] = substrate: Cc1c(Cl)cccc1Nc1ccccc1C(=O)O; assay: cells, lysate or membranes named; details: 95% CI in parentheses, pH 7.4
[4] = substrate: Cc1cccc(Nc2ccccc2C(=O)O)c1C; assay: Steady-state bioactivation kinetics; type: in vitro ADME, human; details: other: CYP2C19, path 1, 2, 95% CI in parentheses, pH 7.4
[5] = substrate: O=C(O)COC(=O)Cc1ccccc1Nc1c(Cl)cccc1Cl; assay: Steady-state bioactivation kinetics; type: in vitro ADME, human; details: other: CYP2C19, 95% CI in parentheses, pH 7.4
[6] = substrate: O=C(O)c1ccccc1Nc1cccc(C(F)(F)F)c1; assay: Steady-state bioactivation kinetics; type: in vitro ADME, human; details: other: CYP2C19; metabolite M2/M4, path 1, 2; 95% CI in parentheses; pH 7.4
[7] = substrate: Cc1cccc(Nc2ccccc2C(=O)O)c1C; assay: Steady-state kinetics of overall NSAID metabolism; type: in vitro ADME, human; details: other: overall metabolism (depletion) by CYP2C19; 95% CI in parentheses; pH 7.4
[8] = substrate: O=C(O)COC(=O)Cc1ccccc1Nc1c(Cl)cccc1Cl; assay: Steady-state kinetics of overall NSAID metabolism; type: in vitro ADME, human; details: other: overall metabolism (depletion) by CYP2C19; 95% CI in parentheses; pH 7.4
[9] = substrate: O=C(O)c1ccccc1Nc1cccc(C(F)(F)F)c1; assay: Steady-state kinetics of overall NSAID metabolism; type: in vitro ADME, human; details: other: overall metabolism (depletion) by CYP2C19; 95% CI in parentheses; pH 7.4
[10] = other: CYP2C19, metabolite M2/M4, path 1, 2
[11] = other: CYP2C19, metabolite M6a, path 3
[12] = other: CYP2C19, metabolite M6b, path 3
[13] = other: overall metabolism (depletion) by CYP2C19
[14] = other: CYP2C19, metabolite M6, path 3
[15] = other: CYP2C19, metabolite M2/M4a, path 1, 2
[16] = other: CYP2C19, metabolite M2/M4b, path 1, 2

B1: CYP2C19 (Homo sapiens) (protein)
chain: MDPFVVLVLCLSCLLLLSIWRQSSGRGKLPPGPTPLPVIGNILQIDIKDVSKSLTNLSKIYGPVFTLYFGLERMVVLHGYEVVKEALIDLGEEFSGRGHFPLAERANRGFGIVFSNGKRWKEIRRFSLMTLRNFGMGKRSIEDRVQEEARCLVEELRKTKASPCDPTFILGCAPCNVICSIIFQKRFDYKDQQFLNLMEKLNENIRIVSTPWIQICNNFPTIIDYFPGTHNKLLKNLAFMESDILEKVKEHQESMDINNPRDFIDCFLIKMEKEKQNQQSEFTIENLVITAADLLGAGTETTSTTLRYALLLLLKHPEVTAKVQEEIERVIGRNRSPCMQDRGHMPYTDAVVHEVQRYIDLIPTSLPHAVTCDVKFRNYLIPKGTTILTSLTSVLHDNKEFPNPEMFDPRHFLDEGGNFKKSNYFMPFSAGKRICVGEGLARMELFLFLTFILQNFNLKSLIDPKDLDTTPVVNGFASVPPFYQLCFIPV
[1]; [10]
  Km: 36.8 µM
  kcat: 2.5 (2.4–2.7) pmol/min/nmol protein
[1]; [11]
  Km: 47.6 µM
  kcat: 1.8 (1.7–2.0) pmol/min/nmol protein
[1]; [12]
  Km: 115 µM
  kcat: 2.4 (2.2–2.6) pmol/min/nmol protein
[1]; [13]
  Km: 77.2 (64–93) μM
  kcat: 2610 (2450–2790) pmol/min/nmol protein
[2]; [10]
  Km: 5.8 µM
  kcat: 3.1 (3.0–3.2) pmol/min/nmol protein
[2]; [14]
  Km: 18.9 µM
  kcat: 64.2 (61.2–67.4) pmol/min/nmol protein
[2]; other: CYP2C19, metabolite M9, path 4
  kcat: 6.1 (5.7–6.4) pmol/min/nmol protein
[2]; [13]
  Km: 160 (130–190) μM
  kcat: 2400 (2210–2610) pmol/min/nmol protein
[3]; [15]
  Km: 7.4 µM
  kcat: 2.6 (2.5–2.7) pmol/min/nmol protein
[3]; [16]
  Km: 11 µM
  kcat: 3.9 (3.8–4.0) pmol/min/nmol protein
[3]; [13]
  Km: 110 (94–130) μM
  kcat: 2070 (1950–2210) pmol/min/nmol protein
[4]; metabolite M2/M4a
  Km: 10.8 µM
  kcat: 2.0 (1.9–2.1) pmol/min/nmol protein
[4]; metabolite M2/M4b
  Km: 13.6 µM
  kcat: 1.5 (1.4–1.6) pmol/min/nmol protein
[5]; metabolite M2/M4, path 1, 2
  Km: 18.8 µM
  kcat: 4.4 (4.2–4.7) pmol/min/nmol protein
[5]; metabolite M6, path 3
  Km: 74.4 µM
  kcat: 5.6 (5.2–6.1) pmol/min/nmol protein
[5]; metabolite M9, path 4
  Km: 8.9 µM
  kcat: 4.1 (3.9–4.4) pmol/min/nmol protein
[6]
  Km: 28.5 µM
  kcat: 7.7 (7.4–8.1) pmol/min/nmol protein
[7]
  Km: 220 (180–260) μM
  kcat: 3060 (2830–3320) pmol/min/nmol protein
[8]
  Km: 380 (320–460) μM
  kcat: 3050 (2760–3410) pmol/min/nmol protein
[9]
  Km: 150 (120–180) μM
  kcat: 2500 (2310–2730) pmol/min/nmol protein

Source: publication PMC8710044 (Biochemical pharmacology, 2021)
